The data set can be described thus: soluble on expression in E. coli; label from the status in PepcDB or PDB records.
In the case of “MAHHHHHHMDPLLLGTSAGLERNCTVLFSHLTALCGTKPAGEPHNPLQVHLRVDDGHRDTALQHIKVLYDVAVRHNPRTSVTVVPLAPLEYYETPNRNTNSREGHKLPLFTASLMTPNCGFNPVYKGVAVGGTFDRLHGGHKLLLTTALLHATQVLRIGVTVSTMLTTKIHADLIEPFEVRCAAVTKFAHLLRPDLGLEVAGIADRAGGADSDPSLEALVVSPETVGALPSINTARLSVGLKPLECVLVPYVGVCDDEESRVSSTNIRKRLCELST”, the “soluble on expression in E. coli” value was “soluble”.
Take “MSLRITGPYQSFARYETALLGFLSHASGMATAALAARRAAPDSHLLSFGARHVHPSIAAVVERAALIGGFDGFSHVAAGDVLDREPGGTMPHALVICFGRGNQEAAWRAFTDGVGDDVPRIALCDTYSDEKDEVLRAVDELGDDLDAVRLDTTSSRRGDFRHIAREVQWALDAGGNSDVSVFVSGGLTPTDLRGLRDVVDGFGVGGFVSNATPVDFGLDIVEVAGEPAAKRGKLSGTKAVYRTPDGGHHVALASQPAPADATALLEPLLVDGTVSMAFDIDDAAARARQDARAVSFRQEGHHHHHH”: the “soluble on expression in E. coli” value is recorded as “soluble”.
Take “MSLGQKVRGNLIIIGGAEDKVGKKTILKYVADIVREKKGSLVILTTATQKPQEVGNNYRQVFETLGLMDIDVLNINSRDEADLDENAERIRSSGGIFFTGGDQLRITSILGGTKVYKALHEVYSKGVVIVGTSAGASVMSNTMIVEGKDNEPARKCTMKMAPGLGFLEEAIIDQHFDQRGRIGRLLCGVAENPFMLGIGIDEDTAIRVYPDAHFEVLGSNAVTVIDGSTIKSTNVSELNPDEILAISGVTLHVLPCGYGFDMKKKRSEGHHHHHH”: the “soluble on expression in E. coli” value was “soluble”.
On to “MGSDKIHHHHHHDDSVFTVMDDPSAAKKPFEGVVNAGYLAQSGNTKSSSMTADSTLTWYGNTTAWSLWGNASNTSSNDERSSEKYAVGGRSRYNLTDMNYVFGQGSWLTDRYNGYQQRDVVTAGYGRQILNGPVHSLRFEFGPGVRYDEYTDGDTDTQPLGYASGTWAWQMTDNAKFSQGVSVFGAEDTTVNSESALNVAINAHFALKVAYNVTWNSEPPASAPEHTDRRTSLSLGYKM”, for which the “soluble on expression in E. coli” value is “not soluble”.
In the case of “MSLSARSSASSWSEEPVQSNMDISTGHMILSYMEDHLKNKNRLEKEWEALCAYQAEPNSSFVAQREENVPKNRSLAVLTYDHSRVLLKAENSHSHSDYINASPIMDHDPRNPAYIATQGPLPATVADFWQMVWESGCVVIVMLTPLAENGVRQCYHYWPDEGSNLYHIYEVNLVSEHIWCEDFLVRSFYLKNLQTNETRTVTQFHFLSWYDRGVPSSSRSLLDFRRKVNKCYRGRSCPIIVHCSDGAGRSGTYVLIDMVLNKMAKGAKEIDIAATLEHLRDQRPGMVQTKEQFEFALTAVAEEVNAILKALPQEGHHHHHH” it was “soluble”.
Regarding “MADAAKNALSSIFDKTKDVLSTAADATKGYASQAQQAIGKIIPGANHESDPNAAVAAAQAASGQPVDTTGGVPPAQ”, the “soluble on expression in E. coli” value is reported as “not soluble”.
Regarding “MALLVAKAYKIIDRIKDAESRPDRLTNKDAGDVYRLFMGFPAAGVAASWHALTSDQRVGEVSTTGLALLRELFAGPRSPGANMAVAALAGDVPEDRVRQVCRAYVNRLSA”, the “soluble on expression in E. coli” value was “not soluble”.
Consider “MIDTTVFQNKTAVYYTLGCKLNFSETSTIGKILREAGVRTARKGEKADICVVNTCSVTEMADKKCRQAIHRLVKQHPGAFVVVTGCYAQLKPGDVAKIKGVDVVLGAEQKGDLLQYLGDLHKHEEGEAFTTTTKDIRSFSPSCSRGDRTRFFLKVQDGCDYFCSYCTIPFARGRSRNGTVASMVEQARQAAAEGGKEIVLTGVNIGDFGKTTGETFFDLVKALDQVEGIERYRISSIEPNLLTDEIIEFVSRSRRFMPHFHIPLQSGCDEVLKLMRRRYDTALFASKVKKIKEVMPDAFIGVDVIVGTRGETEEYFEQAYQFISGLDVTQLHVFSYSERPGTQALKIDYVVSPEEKHQRSQRLLTLSDEKTRAFYTRHIGQTMQVLMEKSKAGTPMHGFTANYIRVEVENDESLDNQMINVRLGEFNEDMTALKGTILMNYEV”, for which the “soluble on expression in E. coli” value is listed as “not soluble”.
“MGSDKIHHHHHHMTFRALPSVDRLIRAVRSDGADMPHELVREAARAVLNEARTSISAGHPPPDLSTLVAAVQARLRADVTPSLRPLINATGVIIQTNLGRAPLSAAACAAMQEVGSGYSNLEYDLAQGERGSRHVHLESLLVQLTGAEAALVVNNNAAAVYLVLIAMAAGREVIVSRGQAVEIGGGFRIPDVLRASGALLIEVGTTNRTYARDYTAAITERTALILRVHTSNFRLIGFVHEPPLAELTAVAHTHGIPLLDDLGSGTLIDTRQFDLPPEPTVQESVAAGADLVTFSGDKLLGGPQAGIIVGRRELIARLRRHPLARALRVDKCTIAGLTATLHSYLRGTALREIPVWQLISTPLSALQARAERIAGALRAAGIPAQMVDCASAIGGGSLPGATQPSAGVALPPVGCGATVLAHRLRMANPPVITRIVDDQVLCDLRSVFPHEDTTLINVVREVWQ”: the “soluble on expression in E. coli” value is given as “not soluble”.
For the sequence “GSKQVITEQIANDLVKEVVNSSVISIVKREFSEANYRKDFIDTMTRELYDAFLHERLYLIYMDSRAELKRNSTLKKKFFEKWQAS”, the “soluble on expression in E. coli” value is “soluble”.
On to “MGSDKIHHHHHHMKKQPLAYRMRPSNIDEVIGQQHLVGEGKIIRRMVDAGQLSSMILYGPPGVGKTSIAQAIAGSTDTHYKLLNAVVNNKKDMEIVVEEAKMSGQLILILDEVHRLDKGKQDFLLPHLEKGLLILIGATTANPFHSINPAIRSRCQIFELTPLTTDEIKVALTRALTDKTHGLGEEPVVISDEALAHFAFACGGDVRSALNGLELAVRSTQPNVKGEKEITLSVAEECIQRKSFHHDKDGDAHYDVLSAFQKSIRGSDVNAALHYLARLIEAGDLVSIGRRLLVIAYEDIGLANPQAGPRTLAAIEAAERLGFPEGRIPLANAVVELCLSPKSNSAYVALDAAIADIRKGHVGSVPAHLKDAHYKGAEQLGRGIGYKYPHDYERGWVKQQYLPDSLKSRAYYEPKRTGKFEDALADVYEKLRKSTFSKES”, for which the “soluble on expression in E. coli” value was “not soluble”.
As to “AIAREWKSQDAWKQHSLRLCFGVWPGTEFLHRPRAVHRRSGVVCSQMQTEDSHPETPQVPKESLQEEKDSSPATDASFIQSQDGKTVFLDRRTERRIQRGFVLTERGPRSIWKPAGTSSQRNERVPRRAAARGGAGPPDTTPQLATVRVLVLGANHVAQRLAELLSSHSRVCGCYFVSETTDEAAIESMKKYAYALPLRSALNDDEVVRVAEWVLADYVFLVPTGETHDDGVSLKDKERLERTLAQNRVTFMDENLTGLLLENPSLIDALFRARDSLEA”, the “soluble on expression in E. coli” value is reported as “soluble”.
As for “MKTPVCSEEQGPARDVIAQLLEDALQVESQEQPEQAFVKPHLVSEFDIYGFRTVPDDDEEEKLVAKVRALDLKTLYLTDNQEVSTGVKWENYFASTMNREMACSPELKNLIRAGIPHEHRSKVWKWCVDRHTRKFKDSMEPDYFQTLLQKALEKQNPASKQIELDLLRTLPNNKHYSSPTSEGIQKLRSVLLAFSWRNPDIGYCQGLNRLVAVALLYLDQEDAFWCLVTIVEVFMPRDYYTKTLLGSQVDQRVFRDLLSEKLPRLHTHFEQYKVDYTLITFNWFLVVFVDSVVSDILFKIWDSFLYEGPKVIFRFALALFKYKEEEILKLQDSMSIFKYLRYFTRTILDARKLISISFGDLNPFPLRQIRNRRAYHLEKVRLELTELEAIREDFLRERDTSPDKGELVSDEEEDT”, the “soluble on expression in E. coli” value is “not soluble”.
Consider “MAHHHHHHMLNLSSLLISKKNVKDDGNNSSENEVGGNNDVSSLNNDCVKIKLINMQEYKTKKLLDERKNVNVWSANNKKDNDKKEKKKEKKNEQPKKKESVVTKPKAVGENDTKKIENKDIENKNVTPKKLFVPSAIKQQQQKEALKNKQTPKKEEELFPDLIQSKKSNKTEKEKKKTQPAKKSKKEKADKKVQESTKEQENEFPQIEEIEKIHFNIFDFIDMEKQTYEHIVRNSEKVLQKYKNRSKFVDSMIMCN”, for which the “soluble on expression in E. coli” value is “not soluble”.
“HHHHHHQVQLVQSGAEVKKPGASVKVSCQASGYRFSHFTVHWVRQAPGQRFEWMGWINPYNGNKEFSAKFQDRVTFTADTSANTAYMELRSLRSADTAVYYCARVGEWGWDDSPYDNYYMDVWGKGTTVIVSSGGGGSGGGGSGGGGSEIVLTQAPGTLSLSPGERATFSCRSSHSIRSRRVAWYQHKPGQAPRLVIHGVSNRASGISDRFSGSGSGTDFTLTITRVEPEDFALYYCQVYGASSYTFGQGTKLERK”: the “soluble on expression in E. coli” value is recorded as “soluble”.
“RQLKVGQLVLSATPLPSLDEQARSLALVNLVRRKGIELLPWNPELRQWQARVDMLRQLDIQNGQAESKWPDLSDTSLLETLEK”: the “soluble on expression in E. coli” value is listed as “not soluble”.
As to “MVSSSSGLPSHRGPILSALYPGNGRGGYTASRGIHTSLLFRHRNAKLAWMIPRRLQPLLEARLEKVPVVVLTGPRQAGKTTLALEVAQRREALYLDLESEADRAKLSAPELYLEAHLGRLVILDEVHRMPGLFPLLRSLVDRARRRGLRNGLYLLLGSLAPEVSRQAGESLAGRASYLELSPFDLLEVGREAEPVLWLRGGFPESFLALEDEESFRWRMDFLRSYVEREIPLLGGRLPAEVLRRFLTMLAHLQGELLNASALARNLGLDGRTVNRYLDFLVDLYLLRRLPPLEANVGKRLVKSPKLYLRDSGLVHALLGIRTLEDLLAHPVVGRSYEGFVVENLLRVLPEGGEAYFYRTRAGAEVDLVLLLPGGRFWAVEVKRSLDPRPSRGFHEALKDLKPQEAFVIYPGGETFPVGEGVFAAPLGAVMERLWRG”, the “soluble on expression in E. coli” value is reported as “soluble”.
In the case of “MPAISMFYGIVIYLYFYDDERHKIPHIHAKYQGEDASVSIANGEILAGDIPLSKLRLVQAWIEIHRDALMADWALAVNGQPPFAIEPLRLEHHHHHH” it was “not soluble”; in that of “MSLIAKVVVDVAAKQTDRIFEYHIPVELEKDIKVGSRVVVPFGPRKIQGFVVGLSEDSEFKGQLKDLLVVVDEMPPLTPELVTLSADLAENIYSYRIKILQAMLPWVMRANYRKLLVPANAQAEKMQFFQGDPIDLNKITDLKDIKKIRKLLRDGDAKIEYVVENKAKKKKENQYELVLESEEYTKIYNTLRQNAVKQKQLLMDIIENEASYPKNQKDFEKKLGLTASVLNTAVKRGWLKRKEVEVYRDPLSGFKDNKKSAPVKLNDEQQFALNQITAAIDKRKAETFLLEGITGSGKTEVYLHAISKALEQGRNALMLVPEISLTPQMVRQVKSRFGQAVAVLHSALSEGEKYDEWRRIRRGETRVVVGARSAVFAPLDNIGLIVIDEEHESSYKQETDPRYNARDVAIWRSKYHHCPLVLGSATPSLGSRARAQKNVYKLLRLTKRANNKKLPKVNLIDLKHVQFAGGQFDLSVNLVDAIKKRLDNKEQVILMLNRRGFANFMLCRECGFVLKCPNCDVSLNLHKDTNSMQCHYCGHTERVPSRCPNCQSSKIRFLGTGTQKVQEELEELLPGARILRMDVDTTRKKGSYKRILDSFGNHEADILLGTQMIAKGLDFPNVTLVGVINADTGLWLSDYNASEKTFELLTQVAGRAGRANKEGEVLIQTYNPEHYAIQLAQTQNYERFYGYEMNVRHAGNYPPYFFTVLISIAAKKEQNAAREAFRIKRYLSQHLHEEMIILGPTPSAISRVKNQYYYQILVKYKKEPNIKELLHHIQDSAQEAKKYGLNVFIDNEPEKIMEGHHHHHH”, “soluble”; in that of “MSLAKISKIEAQKRKGRYNIYLDGKYAFPVAESVLIQFRLMKGTELDEKQIAAIATADQQAKAYSRMLDYLSYQMRTESDIVKKLKEIDTPEEFVEPILKKLRGQQLIDDHAYAASYVRTMINTDLKGPGIIRQHLRQKGIGESDIDDALTQFTPEVQAELAKKLALKLFRRYRNQPERRREQKVQQGLTTKGFSSSVYEMIKDEVVPQPDLEQENDLLAKEAAKQWRRVRRYQGYEREQHFKQTMYRKGFDLDDVQSWLDAQDEGHHHHHH”, “soluble”.
